Assay: yeast display, Sf9 membrane polyspecificity reagent, FACS + sequencing; frameworks hold sequencing errors
Procedure, shortened: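 Polyreactivity labels are assigned by the sorting gate from which each nanobody was recovered. The gates were low and high (top ~1%), set on anti-HA fluorescence for expression and streptavidin fluorescence for reagent binding. Before sorting, galactose-induced (36–48 hours) yeast display cells were stained for 1 hour at 4 °C with 10% biotinylated, detergent-solubilized Sf9 membrane reagent.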

Sequence | polyreactivity (PSR sort gate)
QVQLVESGGGLVQAGGSLRLSCAASGSIFDIYAMGWYRQAPGKERELVASIRRRGGSTYYADSVKGRFTISRDNAKNTVYLQMNSLKPEDTAVYYCNARRVWLRTTGTNWPERGYWGQGTQVTVSS | high polyreactivity
QVQLVESGGGLVQAGGSLRLSCAASGRIFGYNAMGWSRQAPGKERELGAAISWSGGSTFYADSVKGRFTISRDNAKNTVYLQMNSLKPEDTAVYYCAADSQDGYYYWGQGTQVTVSS | low polyreactivity
QVQLQESGGGLVQAGGSLRLSCAASGTISDSGLMGWYRQAPGKERELVAGISSGGITNYADSVKGRFTISRDNAKNTVYLQMNSLKPDDTAVYWGQGTQVTVSS | low polyreactivity
QVQLVESGGGLVQAGGSLRLSCAASGLTFSVYTMGWYRQAPGKERELVAAITTSGGRTYYADSVKGRFTISRDNAKNTVYLQMNSLKPEDTAVYYCAAVRTGDTTGTMGYWGQGTQVTVSS | high polyreactivity
QVQLVESGGGLVQAGGSLRLSCAASGSIFDGYAMGWYIQAPGKDRELVAAISGSGGITYYADSVKGRFTISRDNAKNTVYLPMNSLKPEDTAVYYCAADYSWYAGYGYWGQGTQVTVSS | low polyreactivity
QVQLVESGGGLVQAGGSLRLSCAASGRTFTFYAMGWYRQAPGKERELVAAISTRGGRTYYADSVKGRFTISRDNAKNTVYLQMNSLKPEDTAVYYCAARARRRYYYWGQGTQVTVSS | high polyreactivity
QVQLVESGGGLVQAGGSLRLTCAASGITFCIYVMGWYRQAPGKEREVVATISRSDDNTYYADSVKGRFTISRDNAKNTVYLQMYCLKPEDTAVYYCAADGVISAWYSSRDDYWGQGTQVTVSS | low polyreactivity
QVKLVESGGGLVQARGSLRLSCAASGRIFTIYAKGWYRPAPGKERELVAAITRGGNTNYADSVKGRFTISRDNAKNTVYLQMNSLKPEDTAVYNCAARANVYTKKRDYWGQGTQVTVSS | high polyreactivity
QVQLVESGGGLVQAGGSLRLICAASGSTFRYYAMGWYRQAPGKEREFVAAITKGGSRTSYADSVKGRFTISRDNAKNTVYLQMNSLKPEDTAVYYCATAYYGGASQRNYGYWGQGTQVTVSS | high polyreactivity
QVQLVESGGGLLQAGGSLRLSCAASGRIFVNYAMGWYRQAPGKERELVAVISRSGGGTNYADSVKGRFTISRDNAKNTVYLQMNSLKQEDTAVYYCAADSYYYPYDYWGQGTQVTVSS | high polyreactivity
QVQLVESGGGLVQAGGSLRLSCAASGSTFTYNAMGWYRQAPGKERELVAAIRSNGGSTYYADSVKGRFTISRDNAKNTVYLQMNSLKPEDTAVYYCAARLSVLGGYRGRNAWRFDHWGLGTQVTVSS | high polyreactivity
QVQLVESGGGLVQAGGSLRLSCAASGITFYYNDMGWYRQAPGKERELVAAISSGGTTNYADSVKGRFTISRDNAKNTVYLQMNSLKPEDTAVYYCATGYAEPEWYPFVSDYDYWGQGTQVTVSS | low polyreactivity
QVQLVESGGGLVQAGGSLRLSCAASGSTINKYAMGWYRQAPGKERELVAAISRSGGSTNYADSVKGRFTISRDNAKNTVYLQMNSLKPEDTAVYYCNAGYGRWQRHDYWGQGTQVTVSS | high polyreactivity
QVQLVESGGGLVQAGGSLRLSCAASGFTFTAYAMGWYRQAPGKERELVAAISSGGSTYYADSVKGRFTISRDNAKNTVYLQMNSLKPEDTAVYYCAAVGVYTVKREYWGQGTQLTVSS | low polyreactivity
QVQLVESGGGLVQAGGSLRLSCAASGSIFASNAMGWYRQAPGKERELVAAINSGDSTNYADSVKGRFTISRDNAKNTVYFQMNSLKPEDTAVYYCARGLEERYDYWGQGTQVTVSS | low polyreactivity
QVQLVESGGGLVQAGGSLRVSCAASGSFFVPYAMGWYRHAPGKERELVAAISRGGDTNYADSEKGRFTISRDNAKNTVYLQRNSLKPEDTAVYYCNRARHHYSRWHGGYYYWGQGTQETVSS | low polyreactivity

Sequence | polyreactivity (PSR sort gate)
QVQLVESGGGLVQAGGSLRLSCAASGSIFTPNAMGWYRQAPGKERELVAAISSSSDRTYYADSVKGRFTLSRDNAKNTVYLQMNSLKPEDTAVYYCAAYAQKRYYWGQGTQVTVSS | high polyreactivity
QVQLVESGGGLVPAGGSLRLSCAASGFTFDSYAMGWYRQAPGKERELVAAMSYRGGTTYYADSVKGRFTISRDNAKNTVYLQMNSLKPEDTAVYYCTRLWKYGYNYWGQGTQVTVSS | high polyreactivity
QVQLVESGGGLVQAGGRLRISCAASGTIFYSYEMVWYRKAPAKERELVAAITQSGSSTYYADSVKGRFTISRDNAKNTVYLQMNSLKPEDTAVYYCAAVSRRHPTMSDYWGQGTQVTVSS | high polyreactivity
QVQLVESGGGLVQAGGSLRLSCAASGRIFGTNAMGWYRQAPGKERELVAAISRSGGSTYYADSVKGRFTISRDNAKNTVYLQMNSLKPEDTAVYYCATDGRHTYYYWGQGTQVTVSS | high polyreactivity
QVQLVESGAGLVQAGGSLPLSCAASGFTFTIYAMGWYRQAPGKERELVATISGRAGRTYYADSVKGRFTISRDNAKNTVYLQMNSMKPEDTAGYYCNAGQWRYTGLYYYWGQGTQVTVSS | high polyreactivity
QVQLVESGGGLVQAGGSLRLSCASSGSIFPAYAMGWYRQAPGKERELVAAISSRGGSTYYADSVKGRFTISRDNAKNTVYLQMNSLKPEDTAVYYCAASRWLYYYLFEYWGQGTQVTVSS | high polyreactivity
QVQLVESGGGLVQAGGSLRLSCAASGRIFVINAMVWYRQAPGKERELVAGITSSGNTNYADSVKGRFTISRDNAKNTVYLQMNSLNPEDTAVYYCNAQVYLTWLTYWLYYPPNDYWGQGTQVTVSS | low polyreactivity
QLQLVESGGGLVQAGGSLRLSCAASGRIFKFNAMGWYRQATGKERELVARITWRGGSPYYADSVKGRFTISRDNAKNTVYLQLNSLKPEDTAVYDCATYTPWTRFYSGTEVGYWGQGTQVTVSS | high polyreactivity
QVQLVESGGGLVQAGGSLRLSCAASGRTFTGYVMGWYRQAPGKDRELVAGSSRRGGRTYYADSVKGRYTISRDNAKNTVYLQMNSLKPEDTEVYYCAAAVTSSDPYDYWGQGTQVTVSS | high polyreactivity
QVQLVESGGGLVQAGGSLRLSCAASGIILSYYVMGGYRQAPGNATELVAAISLRGGTTYYADSVKGRFTISRDNANTTVYIQMNSLKPEDTAVYYCAAQRPGFGYEYDYWGQGTQVTVSS | high polyreactivity
QVQLVESGGGLVQAGGSLRLSCAASGRIFAYYAMGWYRQAPGTERELVAAITRRSGGITYYADSVKGRFTISRDNAKNTVYLQMNSLKPEDTAVYYCAARYRLSGKYRFTYDYWGQGTQVTVSS | high polyreactivity
QVQLVESGGGLVQAGGSLRLSCAASGRTFFDYTMGWYRQAPGNERELDAAITGGDGSTYYADSVKGRFTISRDNAKNTVYLEMTSLKPEDTAVYYCAAEYTRTYWYAAMDYWGQGTQVTVSS | low polyreactivity
QVQLVESGGGLVQAGGSLRLSCAASGRIFYPYAMGWYRQAPGKERELVASITSGGGTYYADSVKGRFTISRDNAKNTVYLQMNSLKPEDTAVYYCAAKYYTSWIRYDYWGQGTQVTVSS | low polyreactivity
QVQLLESGGGLVQAGGSLRLSCAASGLIFAYAMGWYRQAPGKERELVAVISWSGGSTYYADSVKGRFTISRDNAKNTVYLQKNSLKPEDTAVYYCAADYFGNWQLAGGYLGQGTQVTVSS | low polyreactivity
QVQLVESGGRLVQAGGSLRLSCAASGRTFLHNAMGWYRQAPGKERELVAAIDSGGTTHYADSVKGRFTISRDNAKNTVYLQMNSLKPEDTAVYNCAARPTRGHWWYGNWGQGTQVTVTS | low polyreactivity
QVQLVESGGGLVQAGGSLRLSCAASGRTFYRNAMGWYRQAPGIERELVAVISQRGGRTFYADSVKGRFTISRDNAKNTVYLQMNSLKPEDTAVYYCAAPTQSYAHQGFGYWGQGTQVTVSS | high polyreactivity

— the nanobody polyreactivity screen of Harvey et al. (2022)
